The values that follow come from IntAct's records for PubMed 16249186.

B1: Protein E7 (Human papillomavirus type 1a), P06465 (parent)
chain: MVGEMPALKDLVLQLEPSVLDLDLYCYEEVPPDDIEEELVSPQQPYAVVASCAYCEKLVRLTVLADHSAIRQLEELLLRSLNIVCPLCTLQRQ
B2: Retinoblastoma-associated protein (Homo sapiens), P06400 (parent)
chain: MPPKTPRKTAATAAAAAAEPPAPPPPPPPEEDPEQDSGPEDLPLVRLEFEETEEPDFTALCQKLKIPDHVRERAWLTWEKVSSVDGVLGGYIQKKKELWGICIFIAAVDLDEMSFTFTELQKNIEISVHKFFNLLKEIDTSTKVDNAMSRLLKKYDVLFALFSKLERTCELIYLTQPSSSISTEINSALVLKVSWITFLLAKGEVLQMEDDLVISFQLMLCVLDYFIKLSPPMLLKEPYKTAVIPINGSPRTPRRGQNRSARIAKQLENDTRIIEVLCKEHECNIDEVKNVYFKNFIPFMNSLGLVTSNGLPEVENLSKRYEEIYLKNKDLDARLFLDHDKTLQTDSIDSFETQRTPRKSNLDEEVNVIPPHTPVRTVMNTIQQLMMILNSASDQPSENLISYFNNCTVNPKESILKRVKDIGYIFKEKFAKAVGQGCVEIGSQRYKLGVRLYYRVMESMLKSEEERLSIQNFSKLLNDNIFHMSLLACALEVVMATYSRSTSQNLDSGTDLSFPWILNVLNLKAFDFYKVIESFIKAEGNLTREMIKHLERCEHRIMESLAWLSDSPLFDLIKQSKDREGPTDHLESACPLNLPLQNNHTAADMYLSPVRSPKKKGSTTRVNSTANAETQATSAFQTQKPLKSTSLSLFYKKVYRLAYLRLNTLCERLLSEHPELEHIIWTLFQHTLQNEYELMRDRHLDQIMMCSMYGICKVKNIDLKFKIIVTAYKDLPHAVQETFKRVLIKEEEYDSIIVFYNSVFMQRLKTNILQYASTRPPTLSPIPHIPRSPYKFPSSPLRIPGGNIYISPLKSPYKISEGLPTPTKMTPRSRILVSIGESFGTSEKFQKINQMVCNSDRVLKRSAEGSNPPKPLKKLRFDIEGSDEADGSKHLPGESKFQQKLAEMTSTRTRMQKQKMNDSMDTSNKEEK
partner: B1 chain
B3: Protein E7 (Human papillomavirus type 1a), P06465 (parent)
chain: B1 chain
partner: B2 chain

The variants in the first test derive from B1. The following applies: with e2f3_human E2F3, O00716.
Sequence of e2f3_human E2F3, O00716 (O00716 whole entry): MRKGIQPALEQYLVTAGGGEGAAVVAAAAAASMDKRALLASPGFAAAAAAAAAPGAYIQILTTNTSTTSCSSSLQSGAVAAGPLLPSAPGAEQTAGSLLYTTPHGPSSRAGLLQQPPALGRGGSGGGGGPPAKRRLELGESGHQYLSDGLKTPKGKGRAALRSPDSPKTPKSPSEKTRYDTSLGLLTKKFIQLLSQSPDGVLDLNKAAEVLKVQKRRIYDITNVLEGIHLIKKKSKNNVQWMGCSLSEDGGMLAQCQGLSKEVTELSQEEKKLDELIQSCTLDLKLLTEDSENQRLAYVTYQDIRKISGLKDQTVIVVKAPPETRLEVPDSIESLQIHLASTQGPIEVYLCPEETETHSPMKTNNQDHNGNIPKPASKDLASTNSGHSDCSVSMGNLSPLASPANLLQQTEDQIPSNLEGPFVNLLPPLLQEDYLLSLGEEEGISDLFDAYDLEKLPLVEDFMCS
Take MVGEMPALKDLVLQLEPSVLDLDLYCYEEVPPDDIEEELVSPQQPYAVVASCAYCEKLVELTVLADHSAIRQLEELLLRSLNIVCPLCTLQRQ [R60E]: the “effect of a mutation on the interaction” value is on record as “decreasing interaction”.
In the case of MVGEMPALKDLVLQLEPSVLDLDLYCYEEVPPDDIEEELVSPQQPYAVVASCAYCEKLVRETVLADHSAIRQLEELLLRSLNIVCPLCTLQRQ [L61E], the “effect of a mutation on the interaction” value is recorded as “decreasing interaction”.

The variants in another test derive from B2. The following applies: with ve7_hpv1 E7, P06465.
With K810E;K814E;K824E, the “effect of a mutation on the interaction” value was “disrupting interaction”.

A further test covers variants of B3. The following applies: with rb_human RB1, P06400.
Turning to MVGEMPALKDLVLQLEPSVLDLDLYCYEEVPPDDIEEELVSPQQPYAVVASCAYCEKLVRLTVLADHSAIRQLRRLLLRSLNIVCPLCTLQRQ [E74R;E75R], the “effect of a mutation on the interaction” value is “decreasing interaction”.
